The target of assay [1] is T1, human DLL4, full length, on cells (human, UniProt Q9NR61 27-685). The assay can be described thus: cell-based or functional assay.
The target in assay [2] is T1, human DLL4, full length, on cells. Put plainly: competition FACS: huNotch-1-biotin to DLL4 cells. The method, then: (§1) Notch blocking assay: Briefly, stable cell lines overexpressing cell-surface DLL4 were harvested from tissue culture flasks and re-suspended in phosphate buffered saline (PBS) containing 1% bovine serum albumin and 1 mM CaCl₂ (FACS buffer). HEK293G-DLL4 cells were dispensed into 96-well plate (v-bottom) at 1.5×10⁵ cells/well in FACS buffer. After spinning down cells and discarding the supernatant, 50 μL of purified IgG with appropriate dilution were added to each well, and incubated on ice at 4° C. for 60 minutes, followed by addition of 50 μL/well of Notch1-biotin at 0.2 μg/mL for human DLL4-293G or 2.0 μg/mL for mouse DLL4-293G (1.0 or 0.1 μg/mL final) for an additional 1 hour incubation ice at 4° C. After washing the cells two times with FACS buffer, 50 μL of R-phycoerythrin-conjugated streptavidin (1:150 dilution in FACS buffer) (Jackson ImmunoResearch, West Grove, Pa., Cat.#016-110-084) were added. Following an incubation on ice (4° C., 60 minutes), cells were washed three times and resuspended in FACS buffer. Fluorescence was measured using a Becton Dickinson FACSCalibur-HTS (Becton Dickinson, San Jose, Calif.). Data were analyzed using Graphpad Prism software, and IC₅₀ values were reported as the concentration of antibody to achieve 50% reduction of Notch1 bound to DLL4 expressing cells. […]

The target in assay [3] is T2, mouse DLL4 on cells (mouse, UniProt Q9JI71 27-686).
T2 construct: whole, on cells; also called mouse DLL4-293G; mu DLL4 cells
T2 sequence (Q9JI71 27-686): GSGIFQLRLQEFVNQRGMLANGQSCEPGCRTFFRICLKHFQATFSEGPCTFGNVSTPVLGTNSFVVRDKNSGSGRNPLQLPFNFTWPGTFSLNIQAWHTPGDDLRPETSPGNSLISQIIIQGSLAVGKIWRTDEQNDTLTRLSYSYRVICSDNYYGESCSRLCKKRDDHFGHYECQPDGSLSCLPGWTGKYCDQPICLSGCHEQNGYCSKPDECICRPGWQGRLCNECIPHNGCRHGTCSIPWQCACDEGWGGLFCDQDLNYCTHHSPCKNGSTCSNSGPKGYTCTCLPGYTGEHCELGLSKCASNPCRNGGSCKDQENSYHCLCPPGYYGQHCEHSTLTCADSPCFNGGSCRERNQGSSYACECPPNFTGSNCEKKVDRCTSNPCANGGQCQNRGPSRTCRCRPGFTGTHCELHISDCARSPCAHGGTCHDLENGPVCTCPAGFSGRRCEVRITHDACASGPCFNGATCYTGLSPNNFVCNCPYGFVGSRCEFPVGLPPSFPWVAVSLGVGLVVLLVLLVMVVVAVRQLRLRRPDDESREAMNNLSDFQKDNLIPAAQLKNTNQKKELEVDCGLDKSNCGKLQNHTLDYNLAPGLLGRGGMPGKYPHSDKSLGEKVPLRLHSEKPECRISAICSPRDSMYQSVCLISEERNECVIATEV
Put plainly: competition FACS: huNotch-1-biotin to DLL4 cells. How it is done: as §1

The target in assay [4] is T3, cynomolgus monkey DLL4 extracellular domain (cynomolgus monkey).
T3 construct: extracellular domain; also called cynoDLL4 ECD; Cyno DLL4
Put plainly: SPR (Biacore). The method, then:
(§2) The BIACORE® surface plasmon resonance assay (Biacore, Inc., Piscataway, N.J., US) determines the affinity of antibodies with kinetic measurements of on-rate and off-rate constants. Binding of DLL4 antibodies to a purified recombinant DLL4 extracellular domain (ECD) was determined by surface plasmon resonance-based measurements with a Biacore® instrument (either a Biacore 2000, Biacore 3000, or Biacore T100; GE Healthcare, Piscataway, N.J., US) using running buffer HBS-EPB (10 mM HEPES [pH 7.4], 150 mM NaCl, 3 mM EDTA, 0.1 mg/ml BSA and 0.005% surfactant P20) at 25° C. For example, approximately 9000 RU of goat anti-human Fc specific polyclonal antibody (Thermo Fisher Scientific Inc., Rockford, Ill., US) diluted in 10 mM sodium acetate (pH 4.5) is directly immobilized across a CMS research grade biosensor chip using a standard amine coupling kit according to manufacturer's instructions and procedures at 25 μg/ml. Unreacted moieties on the biosensor surface were blocked with ethanolamine. For kinetic analysis, rate equations derived from the 1:1 Langmuir binding model were fitted simultaneously to multiple antigen injections (using global fit analysis) with the use of Scrubber 2 (BioLogic Software), Biacore Biaevaluation 4.0.1 software or Biacore T100 Evaluation software. Purified antibodies were diluted in running buffer for capture across goat anti-human Fc reaction surfaces. Antibodies to be captured as a ligand (1 μg/ml) were injected over reaction matrices at a flow rate of 10 μl/min. During the assay, all measurements were referenced against the capture surface alone (i.e., with no captured anti-DLL4 antibody). […] The equilibrium dissociation constant KD (M) of the reaction between antibodies and the target antigen was then calculated from the kinetic rate constants by the following formula: KD=Koff/Kₒₙ. Binding was recorded as a function of time and kinetic rate constants were calculated.
In general terms: SPR reads the build-up and loss of mass on a sensor chip optically.

Assay [5] concerns the target T4, human DLL4 extracellular domain (human, UniProt Q9NR61 27-529).
T4 construct: purified recombinant ECD; biotin-labelled or 6xHis-tagged depending on the assay; also called huDLL4 ECD; hu DLL4 ECD
The assay can be described thus: SPR (Biacore). The method, then: as §2

The target of assay [6] is T5, mouse DLL4 extracellular domain (mouse, UniProt Q9JI71 27-532).
T5 construct: extracellular domain; also called muDLL4 ECD; murine DLL4
T5 sequence (Q9JI71 27-532): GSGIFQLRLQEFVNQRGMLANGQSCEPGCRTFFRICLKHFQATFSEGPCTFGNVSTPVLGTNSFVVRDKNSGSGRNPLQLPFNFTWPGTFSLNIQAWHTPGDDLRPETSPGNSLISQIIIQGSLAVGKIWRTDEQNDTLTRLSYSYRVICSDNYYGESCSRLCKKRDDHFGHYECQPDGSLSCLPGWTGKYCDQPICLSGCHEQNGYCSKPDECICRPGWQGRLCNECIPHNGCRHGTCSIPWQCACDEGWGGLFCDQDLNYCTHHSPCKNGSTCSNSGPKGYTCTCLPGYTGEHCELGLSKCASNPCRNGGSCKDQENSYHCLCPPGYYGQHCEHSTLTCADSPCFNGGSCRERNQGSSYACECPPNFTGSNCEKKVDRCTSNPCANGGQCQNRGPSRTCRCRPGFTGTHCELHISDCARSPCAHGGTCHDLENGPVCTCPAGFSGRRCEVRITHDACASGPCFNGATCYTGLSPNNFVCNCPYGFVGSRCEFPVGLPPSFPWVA
Put plainly: competition ELISA: biotin-DLL4 ECD to coated huNotch-1. How it is done:
(§3) Plates were then washed 3 times with wash buffer (PBS, 0.05% Tween-20) and blocked with 200 μl/well blocking buffer (D-PBS, 1% BSA, 1 mM CaCl₂, 0.05% Tween-20) for 1 hour at 25° C. While blocking, biotin labeled DLL4 extracellular domain (14 nM) was mixed with antibody (30 pM-66 nM, 3-fold serial dilution in blocking buffer) for 1 hour at 25° C. with shaking. Assay plates were washed after blocking, and incubated with DLL4/antibody mixtures (100 μl/well, 1 hour at 25° C. with shaking). Plates were washed again and 100 μl/well streptavidin conjugated with HRP (Fitzgerald #65R-S104PHRPx, diluted 1:5,000 in blocking buffer) was added for 1 hour at 25° C. with shaking. After a final wash, plates were developed using 100 μl/well substrate (TMB Sigma #T8665), and the reaction was stopped using 100 μl/well 1N HCl, and the absorbance was read at 450 nm. Data were analyzed using Graphpad Prism software and IC₅₀ values were reported as the concentration of antibody to achieve 50% reduction of DLL4 bound to Notch1.
(§4) Further characterization determined 37D10 and 40B10 were identical rat mAbs.
Background: ELISA stands for enzyme-linked immunosorbent assay.

Assay [7] addresses T4, human DLL4 extracellular domain. The description is as above. How it is done:
as §3, §4

Assay [8] has as its target T1, human DLL4, full length, on cells. The assay can be described thus: FACS, DLL4 cells. How it is done:
(§5) Stable cell lines overexpressing cell-surface DLL4 were harvested from tissue culture flasks, washed four times and resuspended in phosphate buffered saline (PBS) containing 1% bovine serum albumin and 1 mM CaCl₂ (FACS buffer). 1.5×10⁵ cells were incubated with antibodies at various concentrations in FACS buffer for 60 minutes on ice. […] Following an incubation on ice (4° C., 60 minutes), cells were washed three times and resuspended in FACS buffer. Fluorescence was measured using a Becton Dickinson FACSCalibur-HTS (Becton Dickinson, San Jose, Calif., US). Data were analyzed using Graphpad Prism software and EC₅₀ values were reported as the concentration of antibody to achieve 50% of maximal DLL4 antibodies binding to DLL4 expressing cells. […]

In assay [9] the target is T2, mouse DLL4 on cells. Put plainly: FACS, DLL4 cells. How it is done:
as §5

For assay [10], the target named is T5, mouse DLL4 extracellular domain. The assay can be described thus: binding ELISA, DLL4 ECD.
Assay [11] has as its target T4, human DLL4 extracellular domain. Put plainly: binding ELISA, DLL4 ECD.
For assay [12], the target named is T5, mouse DLL4 extracellular domain. The assay can be described thus: competition ELISA vs Notch-1.
Assay [13] concerns the target T4, human DLL4 extracellular domain. Put plainly: competition ELISA vs Notch-1.
The target in assay [14] is T5, mouse DLL4 extracellular domain. The assay can be described thus: SPR (Biacore). The method in brief: (§6)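 Purified anti-DLL4 antibodies (1 μg/ml) captured on immobilized goat anti-human Fc, with DLL4 ECD injected as analyte; HBS-EPB running buffer (pH 7.4), 25° C, referenced against capture-only surface. On/off rates from global 1:1 Langmuir fit; KD = Koff/Kon.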
The target of assay [15] is T6, rat DLL4 extracellular domain (rat, UniProt D3ZHH1 28-530).
T6 construct: extracellular domain; also called ratDLL4 ECD
T6 sequence (D3ZHH1 28-530): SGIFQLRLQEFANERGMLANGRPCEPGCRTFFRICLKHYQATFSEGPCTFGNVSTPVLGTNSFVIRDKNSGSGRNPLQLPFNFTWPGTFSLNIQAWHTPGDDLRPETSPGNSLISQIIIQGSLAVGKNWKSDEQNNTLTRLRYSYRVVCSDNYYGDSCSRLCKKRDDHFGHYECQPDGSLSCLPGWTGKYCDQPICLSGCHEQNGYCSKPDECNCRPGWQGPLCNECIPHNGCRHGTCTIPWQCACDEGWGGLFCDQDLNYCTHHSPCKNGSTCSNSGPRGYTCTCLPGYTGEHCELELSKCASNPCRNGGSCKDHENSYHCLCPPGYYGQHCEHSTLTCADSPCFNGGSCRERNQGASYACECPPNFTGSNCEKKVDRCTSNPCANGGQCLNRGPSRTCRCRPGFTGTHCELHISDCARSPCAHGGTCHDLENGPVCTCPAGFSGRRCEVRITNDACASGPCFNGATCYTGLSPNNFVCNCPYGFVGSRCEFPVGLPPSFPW
Put plainly: SPR (Biacore). The method in brief:
as §6

Assay [16] addresses T4, human DLL4 extracellular domain. The assay can be described thus: SPR (Biacore). This is another data set of the same source.
The target in assay [17] is T2, mouse DLL4 on cells. The assay can be described thus: FACS on cells expressing mouse DLL4.

Like-named read-outs stand apart in the source and are kept apart here.

T1 sequence (Q9NR61 27-685 limits assumed): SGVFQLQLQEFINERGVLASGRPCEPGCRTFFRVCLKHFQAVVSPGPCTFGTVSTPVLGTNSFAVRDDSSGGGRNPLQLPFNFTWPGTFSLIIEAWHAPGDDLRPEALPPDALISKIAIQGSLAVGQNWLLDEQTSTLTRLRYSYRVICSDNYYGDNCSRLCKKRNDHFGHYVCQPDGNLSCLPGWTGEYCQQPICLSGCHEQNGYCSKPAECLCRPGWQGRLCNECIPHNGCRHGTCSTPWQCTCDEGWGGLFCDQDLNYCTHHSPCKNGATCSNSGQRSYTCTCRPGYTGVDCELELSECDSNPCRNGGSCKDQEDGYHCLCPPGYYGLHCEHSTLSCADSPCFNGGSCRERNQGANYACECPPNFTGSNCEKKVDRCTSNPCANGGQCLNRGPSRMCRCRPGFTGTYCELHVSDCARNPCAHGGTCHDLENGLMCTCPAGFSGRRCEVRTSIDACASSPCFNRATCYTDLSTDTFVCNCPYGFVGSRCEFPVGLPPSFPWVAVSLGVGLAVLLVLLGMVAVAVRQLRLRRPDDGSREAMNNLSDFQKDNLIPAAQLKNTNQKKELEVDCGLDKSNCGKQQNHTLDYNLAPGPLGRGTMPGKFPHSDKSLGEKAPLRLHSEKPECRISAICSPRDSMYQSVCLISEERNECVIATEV
T4 sequence (Q9NR61 27-529 limits assumed): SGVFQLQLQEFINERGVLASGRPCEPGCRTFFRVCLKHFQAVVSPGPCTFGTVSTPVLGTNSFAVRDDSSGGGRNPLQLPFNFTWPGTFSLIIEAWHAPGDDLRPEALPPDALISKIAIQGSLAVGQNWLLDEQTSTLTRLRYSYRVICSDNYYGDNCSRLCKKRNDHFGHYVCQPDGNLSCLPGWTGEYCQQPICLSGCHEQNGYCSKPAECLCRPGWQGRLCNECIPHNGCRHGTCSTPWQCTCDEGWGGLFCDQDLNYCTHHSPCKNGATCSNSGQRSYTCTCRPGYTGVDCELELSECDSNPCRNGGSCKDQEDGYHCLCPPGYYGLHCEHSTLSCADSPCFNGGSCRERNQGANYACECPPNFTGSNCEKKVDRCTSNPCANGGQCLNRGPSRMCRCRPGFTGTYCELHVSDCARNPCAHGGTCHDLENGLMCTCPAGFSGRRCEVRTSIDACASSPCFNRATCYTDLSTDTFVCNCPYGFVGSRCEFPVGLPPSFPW

B1: 1A11 rat anti-DLL4 monoclonal antibody (antibody, rat IgG1, V domains shown)
VH: EVQLVESGGGLVQPGRSMKLSCAASGFTFRNFPMAWVRQAPTRGLEWVATISSSDGTTYYRDSVKGRFTISRDNAKSTLYLQVNSLRSEDTATYYCSRGYYNSPFAYWGQGTLVTVSS
VL: DIQMTQSPASLSASLGETVTIECRASEDIYSNLAWYQQKPGNSPQLLIFDTNNLADGVPSRFSGSGSGTQSSLKINSLQSEDVASYFCQQYNNYPPTFGGGTKLELKR
notes: rat IgG1/K hybridoma mAb; also called MC13-1A11.2E1; 1A11 (rat mAb)
Take B1: in [1], the “Notch activation Inhibition (IC50, nM), huDLL4 cell/Notch reporter cells” value came to 2.9 nM. Moreover, the IC50 in assay [2] was 8.4 nM; in assay [3] it was 0.8 nM; in assay [6], 0.79 nM; in assay [7], 0.78 nM; in assay [12], 1.1 nM; in [13], 0.5 nM. Further, the dissociation constant Kd in assay [4] amounted to 8.1 nM; in [5], 5.8 nM; in assay [14] it was 23 nM; in assay [16], 6 nM. The koff is 0.00093 s⁻¹ in [4], 0.0011 s⁻¹ in assay [5] and 0.0029 s⁻¹ in [14]. For the same molecule, the kon was determined as 110000 M⁻¹ s⁻¹ in assay [4], 190000 M⁻¹ s⁻¹ in assay [5] and 130000 M⁻¹ s⁻¹ in [14]. Besides, the EC50 in assay [8] was found to be 34.8 nM; in assay [9] it was 0.8 nM; in assay [10], 0.11 nM; in assay [11], 0.06 nM. Besides, the binding result in assay [15] is “no binding”.

B2: 38H12 rat anti-DLL4 monoclonal antibody (antibody, rat IgG2a, V domains shown)
VH: EVQLVESGGGLVQPGRSLKLSCAASGFTFSNYGMYWIRQAPTKGLQWVAFISHGGGITYYRDSVKGRFTISRDNAKSTLYLQMDSLRSEDTATYHCAALNWELGIDYWGQGVMVTVSS
VL: DIQMTQSPASLSASLGETISIECRASEDIYSNLAWYQKKSGKSPQLLIYAANRLQDGVPSRFSGSGSGTQYSLKISGMQPEDEGDYFCLQGSKFPLTFGSGTKLEIKR
notes: rat IgG2a/k hybridoma mAb; also called MC10-38H12.2G8; 38H12 rat mAb
On to B2, for which the “Notch activation Inhibition (IC50, nM), huDLL4 cell/Notch reporter cells” value in assay [1] was determined as 0.5 nM. The figures for the IC50 in assay [2] and in assay [7] were 1.7 nM and 3.63 nM, respectively. The equilibrium dissociation constant (Kd) in assay [4] worked out at 0.4 nM; in assay [5], 0.3 nM. Besides, the koff in assay [4] came to 9.8e-05 s⁻¹; in assay [5], 0.00011 s⁻¹. The values for the kon in assay [4] and in assay [5] were 260000 M⁻¹ s⁻¹ and 400000 M⁻¹ s⁻¹, respectively. The binding result in assay [17], in assay [10] and in assay [15] was “no binding” in each case. The EC50 came to 1.2 nM in assay [8] and 0.06 nM in [11].

B3: 37D10 rat anti-DLL4 monoclonal antibody (antibody, rat IgG2a, V domains shown)
VH: AVQLVESGGGLVQPKESLKISCAASGFTFSNAAMYWVRLAPGKGLEWVARIRTKPNNYATYYAESVKGRFTISRDDSKSMVYVQMDNLKTEDTAMYYCTAAPWRDSYAHVYWGQGVMVTVSS
VL: DIQMTQSPPVLSASVGDRVTLSCKASQNIHKNLDWYQQKHGDAPKLLIYYTDHLQTGVPSRFSGSGSATDYTLTISSLQPEDVATYYCYQYNGGPFTFGSGTKLEIKR
notes: rat IgG2a/k hybridoma mAb; also called 40B10; 37D10 = 40B10
With B3, the half-maximal inhibitory concentration (IC50) was 5.5 nM in assay [2], 3.8 nM in assay [3], 3.36 nM in [6] and 5.39 nM in [7]. In addition, the Kd in assay [4] is below 617 nM; in [5], 484 nM; in assay [14] it was 135 nM. For the same molecule, the kon stood at 40000 M⁻¹ s⁻¹ in assay [4], 140000 M⁻¹ s⁻¹ in assay [5] and 100000 M⁻¹ s⁻¹ in assay [14]. For the same molecule, the koff in assay [5] is 0.07 s⁻¹; in assay [14] it was 0.0135 s⁻¹. Also, the EC50 was 2.3 nM in assay [8], 0.7 nM in assay [9], 0.14 nM in assay [10] and 0.12 nM in assay [11].

As usually defined, the IC50 is the point on the concentration scale where inhibition reaches its midpoint. For orientation: Kd means the constant that tells how readily two partners part at equilibrium. The term koff denotes a measure of how fast the partners let go of each other. One may read the kon as the rate constant with which the complex forms. The term EC50 denotes the concentration at which the effect is half-maximal.

These data come from US20110217237A1 (AbbVie / Abbott, published 2011).
